In patent US5795865A, “Kallikrein-inhibiting "kunitz domain" proteins and analogues thereof” (Dyax Corp., priority 1996, dated 1998):
Read-outs that look alike come from different tables or passages of the source.

Assays:
[1] = target: T1, human plasma Kallikrein (Homo sapiens, UniProt P03952); assay: Binding of display-phage to kallikrein-agarose beads (Table 8); details: for Relative Binding: fraction bound relative to the parental display-phage, LACI-K1; for Fraction Bound: pfu's eluted as a fraction of the input number (10^10 pfu's)
T1 construct: Hydrolysis of the Arg371 -Ile372 peptide bond yields a two-chain proteinase joined by a disulfide bond; purchased Calbiochem 420302
T1 sequence (P03952 391-638 limits assumed): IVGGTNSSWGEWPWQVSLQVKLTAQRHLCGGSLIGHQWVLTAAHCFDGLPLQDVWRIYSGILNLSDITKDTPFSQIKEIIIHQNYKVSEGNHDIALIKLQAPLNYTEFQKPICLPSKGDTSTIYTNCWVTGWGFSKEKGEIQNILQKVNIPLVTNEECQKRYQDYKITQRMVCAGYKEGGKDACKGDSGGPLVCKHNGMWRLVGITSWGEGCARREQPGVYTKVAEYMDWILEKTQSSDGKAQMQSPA
T1 sequence (P03952 20-390 partner limits assumed): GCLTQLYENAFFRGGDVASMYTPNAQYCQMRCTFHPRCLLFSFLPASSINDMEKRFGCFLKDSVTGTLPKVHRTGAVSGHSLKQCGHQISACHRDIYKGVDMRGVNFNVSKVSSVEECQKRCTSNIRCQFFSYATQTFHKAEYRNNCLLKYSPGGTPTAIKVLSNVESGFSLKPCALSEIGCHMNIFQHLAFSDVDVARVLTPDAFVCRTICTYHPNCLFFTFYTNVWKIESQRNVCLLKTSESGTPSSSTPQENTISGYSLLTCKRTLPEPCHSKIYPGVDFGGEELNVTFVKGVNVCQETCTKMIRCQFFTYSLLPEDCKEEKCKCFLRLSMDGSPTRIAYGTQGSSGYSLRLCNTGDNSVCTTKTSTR
Experimental: This method is highly sensitive because the genetic packages can be amplified. We obtain at least semiquantitative values for the binding constants by use of a pH step gradient. […] Any other suitable method of measuring protein binding may be used.
The overall scheme for selecting a LACI-K1 variant to bind to a given protease involves incubation of the phage-display library with the kallikrein-beads of interest in a buffered solution (PBS containing 1 mg/ml BSA) followed by washing away the unbound and poorly retained display-phage variant with PBS containing 0.1% Tween 20. Kallikrein beads were made by coupling human plasma Kallikrein (Calbiochem, San Diego, Calif., # 420302) to agarose beads using Reactigel (6x) (Pierce, Rockford, II, #202606). The more strongly bound display-phage are eluted with a low pH elution buffer, typically citrate buffer (pH 2.0) containing 1 mg/ml BSA, which is immediately neutralized with Tris buffer to pH 7.5. This process constitutes a single round of selection.

[2] = about 840 mg, 80 open-heart surgery patients, FRAE89; cited from earlier work
[3] = target: plasma kallikrein (pKA) (Homo sapiens, UniProt P03952); assay: Inhibition of human plasma kallikrein (measured Ki taken as KD), yeast-expressed purified proteins; format: biochemical; parameters: Hydrolysis of the Arg371 -Ile372 peptide bond yields a two-chain proteinase joined by a disulfide bond; details: for Ki: preliminary measurements
Chain of plasma kallikrein (pKA) (P03952 391-638 limits assumed): as the sequence (P03952 391-638 limits assumed) above
Chain of plasma kallikrein (pKA) (P03952 20-390 partner limits assumed): as the sequence (P03952 20-390 partner limits assumed) above
Experimental: (§1) A second appropriate method of measuring KD is to measure the inhibitor activity against the enzyme. […] For the proteins of this invention, having KD in the range 5 nM to 50 pM, nanograms to micrograms of inhibitor suffice. When using this method, the competition between the inhibitor and the enzyme substrate can give a measured Ki that is higher than the true Ki. Measurement reported here are not so corrected because the correction would be very small and the any correction would reduce the Ki. Here, we use the measured Ki as a direct measure of KD.
The three isolates KKII/3#6, KK2/#11, and KK2/#13 were recloned into a yeast expression vector. The yeast expression vector is derived from pMFalpha8 (KURJ82 and MIYA85). The LACI variant genes were fused to part of the matα 1 gene, generating a hybrid gene consisting of the matα 1 promoter-signal peptide and leader sequence-fused to the LACI variant. Note that the correctly processed LACI-K1 variant protein should be as detailed in Table 2 with the addition of residues glu-ala-ala-glu (SEQ ID NO: 70) to the N-terminal met (residue 1 in Table 2). Expression in S. cerevisiae gave acceptable yield typical of this system.

[4] = target: plasmin (Homo sapiens, UniProt P00747); assay: Inhibition of plasmin (Ki); format: biochemical
Chain of plasmin (P00747 581-810 limits assumed): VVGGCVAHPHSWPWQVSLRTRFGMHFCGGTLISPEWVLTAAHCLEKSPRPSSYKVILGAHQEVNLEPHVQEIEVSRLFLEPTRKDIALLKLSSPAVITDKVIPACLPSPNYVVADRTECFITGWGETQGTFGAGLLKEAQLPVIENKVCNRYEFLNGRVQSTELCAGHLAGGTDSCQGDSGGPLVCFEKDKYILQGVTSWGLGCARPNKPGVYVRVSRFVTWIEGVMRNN
Chain of plasmin (P00747 97-580 partner limits assumed): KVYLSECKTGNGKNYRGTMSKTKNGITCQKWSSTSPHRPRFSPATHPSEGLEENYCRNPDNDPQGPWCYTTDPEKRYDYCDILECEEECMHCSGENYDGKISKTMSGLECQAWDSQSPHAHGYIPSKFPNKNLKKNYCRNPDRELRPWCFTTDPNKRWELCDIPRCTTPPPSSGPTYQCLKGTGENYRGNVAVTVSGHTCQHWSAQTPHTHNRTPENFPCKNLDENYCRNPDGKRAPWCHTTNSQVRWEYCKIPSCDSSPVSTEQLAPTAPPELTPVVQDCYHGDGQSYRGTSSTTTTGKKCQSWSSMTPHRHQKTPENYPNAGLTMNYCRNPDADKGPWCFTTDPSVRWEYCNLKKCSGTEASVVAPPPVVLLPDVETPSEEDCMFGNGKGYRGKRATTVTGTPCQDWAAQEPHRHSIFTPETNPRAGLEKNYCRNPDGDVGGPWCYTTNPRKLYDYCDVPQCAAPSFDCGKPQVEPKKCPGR
Experimental: as §1

[5] = not corrected for substrate competition, read-out: Ki for plasma kallikrein (pKA)
[6] = stated as 'probably less than', read-out: Ki for plasma kallikrein (pKA), probable bound

## KKI/3(b): LACI-K1 variant Kunitz domain, phase I selectant, SEQ ID NO. 16 (MHSFCAFKADDGPCKAIHLRFFFNIFTRQCEEFIYGGCEGNQNRFESLEECKKMCTRD)
[1]
  Relative Binding: 524
  Fraction Bound: 2.2 × 10^-3

## KKII/3#5: LACI-K1 variant Kunitz domain, SEQ ID NO. 9 (MHSFCAFKADDGHCKASLPRFFFNIFTRQCEEFIYGGCGGNQNRFESLEECKKMCTRD)
[1]
  Relative Binding: 928
  Fraction Bound: 3.9 × 10^-3

## bovine pancreatic trypsin inhibitor [BPTI]
[1]
  Fraction Bound: 2.5 × 10^-5
[2]
  decrease of mean amount transfused: 74%

## KK2/#13: second-library LACI-K1 variant Kunitz domain, SEQ ID NO. 19 (MHSFCAFKADGGRCRGAHPRWFFNIFTRQCEEFSYGGCGGNQNRFESLEECKKMCTRD)
[3]; [5]
  Ki: < 0.3 nM
[3]; [6]
  Ki: < 0.1 nM

## KK2/#11: second-library LACI-K1 variant Kunitz domain, SEQ ID NO. 22 (MHSFCAFKADDGPCRAAHPRWFFNIFTRQCEEFSYGGCGGNQNRFESLEECKKMCTRD)
[3]; [5]
  Ki: < 0.3 nM
[3]; [6]
  Ki: < 0.1 nM

## KKI/3(a): LACI-K1 variant Kunitz domain, phase I selectant, SEQ ID NO. 15 (MHSFCAFKADDGRCKGAHLRFFFNIFTRQCEEFIYGGCEGNQNRFESLEECKKMCTRD)
[1]
  Relative Binding: 761
  Fraction Bound: 3.2 × 10^-3

## LACI-K1: first Kunitz domain of human LACI (residues 50 to 107), parental molecule, SEQ ID NO. 3 (MHSFCAFKADDGPCKAIMKRFFFNIFTRQCEEFIYGGCEGNQNRFESLEECKKMCTRD) [reference compound]
[1]
  Fraction Bound: 4.2 × 10^-6

## KKII/3#6: lead pKA inhibitor, LACI-K1 variant Kunitz domain, SEQ ID NO. 10 (MHSFCAFKADDGHCKANHQRFFFNIFTRQCEEFSYGGCGGNQNRFESLEECKKMCTRD)
[4]
  Ki: 10000 nM
[1]
  Relative Binding: 2071
  Fraction Bound: 8.7 × 10^-3
[3]; [5]
  Ki: ~0.3 nM
[3]; [6]
  Ki: < 0.5 nM
[3]; versus both wild-type LACI and BPTI
  Ki for kallikrein relative to wild-type LACI and BPTI (times): over 100 times
